B1: E3 ubiquitin-protein ligase CHIP (Homo sapiens), Q9UNE7-1 (parent)
chain: MKGKEEKEGGARLGAGGGSPEKSPSAQELKEQGNRLFVGRKYPEAAACYGRAITRNPLVAVYYTNRALCYLKMQQHEQALADCRRALELDGQSVKAHFFLGQCQLEMESYDEAIANLQRAYSLAKEQRLNFGDDIPSALRIAKKKRWNSIEERRIHQESELHSYLSRLIAAERERELEECQRNHEGDEDDSHVRAQQACIEAKHDKYMADMDELFSQVDEKRKKRDIPDYLCGKISFELMREPCITPSGITYDRKDIEEHLQRVGHFDPVTRSPLTQEQLIPNLAMKEVIDAFISENGWVEDY

Variants of: B1
Conditions: with lrrk2_human LRRK2, Q5S007
Sequence of lrrk2_human LRRK2, Q5S007 (Q5S007 whole entry): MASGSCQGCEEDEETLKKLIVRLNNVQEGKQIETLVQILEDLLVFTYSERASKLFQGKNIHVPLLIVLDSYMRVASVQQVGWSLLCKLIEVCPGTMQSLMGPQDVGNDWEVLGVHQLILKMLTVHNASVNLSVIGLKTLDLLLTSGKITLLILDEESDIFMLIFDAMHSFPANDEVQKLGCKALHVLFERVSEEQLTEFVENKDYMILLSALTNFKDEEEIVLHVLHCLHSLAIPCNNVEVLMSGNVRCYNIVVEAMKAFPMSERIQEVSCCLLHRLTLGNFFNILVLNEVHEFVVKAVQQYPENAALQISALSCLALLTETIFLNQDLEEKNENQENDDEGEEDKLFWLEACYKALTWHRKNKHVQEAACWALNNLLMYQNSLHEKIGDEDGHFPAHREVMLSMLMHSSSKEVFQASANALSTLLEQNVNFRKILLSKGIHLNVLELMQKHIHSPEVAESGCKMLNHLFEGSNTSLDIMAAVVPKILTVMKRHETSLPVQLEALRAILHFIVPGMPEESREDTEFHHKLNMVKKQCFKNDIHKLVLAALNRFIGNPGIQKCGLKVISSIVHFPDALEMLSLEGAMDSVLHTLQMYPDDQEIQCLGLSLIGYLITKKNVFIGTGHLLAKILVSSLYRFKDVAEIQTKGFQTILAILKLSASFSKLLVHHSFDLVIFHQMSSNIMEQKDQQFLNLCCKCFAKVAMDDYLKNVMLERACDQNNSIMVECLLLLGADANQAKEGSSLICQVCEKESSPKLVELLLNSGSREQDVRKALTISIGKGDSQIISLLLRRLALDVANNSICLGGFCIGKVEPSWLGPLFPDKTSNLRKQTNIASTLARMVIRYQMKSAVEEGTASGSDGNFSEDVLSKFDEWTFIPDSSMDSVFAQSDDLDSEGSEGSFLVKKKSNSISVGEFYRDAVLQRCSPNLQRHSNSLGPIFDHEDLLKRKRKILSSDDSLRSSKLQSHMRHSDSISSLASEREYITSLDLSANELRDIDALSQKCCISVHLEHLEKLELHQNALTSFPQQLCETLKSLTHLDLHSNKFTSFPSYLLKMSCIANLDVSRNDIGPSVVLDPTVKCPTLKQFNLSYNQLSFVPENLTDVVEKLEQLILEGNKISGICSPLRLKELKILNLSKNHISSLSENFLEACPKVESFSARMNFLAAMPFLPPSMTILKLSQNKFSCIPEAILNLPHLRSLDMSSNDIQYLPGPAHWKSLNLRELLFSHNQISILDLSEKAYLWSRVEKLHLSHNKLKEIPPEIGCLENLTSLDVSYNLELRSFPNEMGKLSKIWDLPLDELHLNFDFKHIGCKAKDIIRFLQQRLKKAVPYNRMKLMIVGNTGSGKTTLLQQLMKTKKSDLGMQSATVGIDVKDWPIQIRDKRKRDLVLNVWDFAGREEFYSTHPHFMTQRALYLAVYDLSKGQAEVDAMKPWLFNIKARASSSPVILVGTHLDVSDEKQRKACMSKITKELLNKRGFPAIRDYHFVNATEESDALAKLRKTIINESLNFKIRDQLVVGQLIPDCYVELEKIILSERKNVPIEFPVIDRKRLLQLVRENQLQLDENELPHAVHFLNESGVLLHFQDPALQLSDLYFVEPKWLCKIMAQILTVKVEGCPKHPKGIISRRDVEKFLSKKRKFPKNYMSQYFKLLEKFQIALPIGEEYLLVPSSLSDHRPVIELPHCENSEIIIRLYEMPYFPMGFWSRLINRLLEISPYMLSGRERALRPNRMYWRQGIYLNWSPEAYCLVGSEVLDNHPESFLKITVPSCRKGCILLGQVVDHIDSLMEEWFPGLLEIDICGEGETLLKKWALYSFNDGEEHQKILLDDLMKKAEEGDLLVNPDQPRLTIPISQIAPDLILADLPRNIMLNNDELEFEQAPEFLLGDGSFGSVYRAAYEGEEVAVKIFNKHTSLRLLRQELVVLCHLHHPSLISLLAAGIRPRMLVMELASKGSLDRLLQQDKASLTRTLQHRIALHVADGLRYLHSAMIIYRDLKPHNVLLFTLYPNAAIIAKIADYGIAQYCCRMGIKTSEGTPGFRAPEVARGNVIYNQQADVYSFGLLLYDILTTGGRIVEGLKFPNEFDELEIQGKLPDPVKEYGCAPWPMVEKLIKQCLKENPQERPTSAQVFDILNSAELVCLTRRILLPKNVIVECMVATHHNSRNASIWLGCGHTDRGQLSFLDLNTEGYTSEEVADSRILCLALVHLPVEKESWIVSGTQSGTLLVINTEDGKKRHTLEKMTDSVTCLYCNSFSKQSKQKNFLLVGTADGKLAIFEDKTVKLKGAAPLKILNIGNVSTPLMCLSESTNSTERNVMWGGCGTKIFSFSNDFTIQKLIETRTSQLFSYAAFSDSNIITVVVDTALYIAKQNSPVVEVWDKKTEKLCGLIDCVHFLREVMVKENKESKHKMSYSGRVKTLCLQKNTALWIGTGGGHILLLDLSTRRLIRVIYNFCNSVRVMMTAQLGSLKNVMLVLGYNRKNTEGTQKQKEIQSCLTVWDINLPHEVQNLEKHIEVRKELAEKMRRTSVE

Row | Variant | effect of a mutation on the interaction
1 | K30C | disrupting interaction

Reference: IntAct's records for PubMed 19196961
